# Measured values: the supplement of paper PMC9112550, “Optimization of the antimicrobial peptide Bac7 by deep mutational scanning” (BMC Biology, 2022)
# Tested on: Escherichia coli TOP10
# Test: shrunken log2 fold change of peptide-encoding DNA abundance (4.5 h post-induction vs induction); higher = less antimicrobial activity (less host growth inhibition)
# Settings: time post-induction: 4.5 h; library: site-saturation at positions 5, 18, 19, 20
# 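Further: peptides expressed intracellularly from a pBAD plasmid library in pooled LB shake-flask culture, induced with 0.3% L-arabinose, DNA abundance read by NGS, three biological replicates, DESeq2 with apeglm shrinkage.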
row,Sequence,shrunken log2 fold change
1,RRIRVRPPRLPRPRPRPKNFPRP,0.0772
2,RRIRTRPPRLPRPRPRPHPYPRP,0.0733
3,RRIRSRPPRLPRPRPRPAATPRP,0.67
4,RRIRLRPPRLPRPRPRPYTHPRP,-0.925
5,RRIRVRPPRLPRPRPRPSGMPRP,0.489
6,RRIRNRPPRLPRPRPRPWYWPRP,-0.109
7,RRIRERPPRLPRPRPRPVCKPRP,0.0272
8,RRIRGRPPRLPRPRPRPKGGPRP,0.901
9,RRIRSRPPRLPRPRPRPKMHPRP,0.157
10,RRIRQRPPRLPRPRPRPFTDPRP,0.0299
11,RRIRRRPPRLPRPRPRPRVFPRP,0.849
12,RRIRLRPPRLPRPRPRPADNPRP,-0.26
13,RRIRQRPPRLPRPRPRPGYAPRP,0.0993
14,RRIRKRPPRLPRPRPRPRSNPRP,0.515
15,RRIRSRPPRLPRPRPRPQQFPRP,-0.123
16,RRIRVRPPRLPRPRPRPEFDPRP,0.197
17,RRIRERPPRLPRPRPRPAPFPRP,-0.244
18,RRIRYRPPRLPRPRPRPNTMPRP,-1.1
19,RRIRWRPPRLPRPRPRPHLLPRP,-0.66
20,RRIRVRPPRLPRPRPRPSPCPRP,-0.145
21,RRIRARPPRLPRPRPRPCHKPRP,-0.259
22,RRIRERPPRLPRPRPRPKHTPRP,-0.127
23,RRIRVRPPRLPRPRPRPYILPRP,-0.278
24,RRIRNRPPRLPRPRPRPEGYPRP,-0.169
25,RRIRERPPRLPRPRPRPAHYPRP,-0.148

row,Sequence,shrunken log2 fold change
1,RRIRQRPPRLPRPRPRPCNWPRP,0.0183
2,RRIRHRPPRLPRPRPRPNEKPRP,-0.0239
3,RRIRIRPPRLPRPRPRPQEKPRP,0.0553
4,RRIRMRPPRLPRPRPRPNLIPRP,-0.0317
5,RRIRMRPPRLPRPRPRPWDTPRP,-0.0606
6,RRIRWRPPRLPRPRPRPTLKPRP,0.0453
7,RRIRNRPPRLPRPRPRPPHTPRP,-0.0383
8,RRIRSRPPRLPRPRPRPHHYPRP,-0.998
9,RRIRIRPPRLPRPRPRPGSQPRP,-0.0143
10,RRIRWRPPRLPRPRPRPHIDPRP,-0.466
11,RRIRGRPPRLPRPRPRPNWIPRP,-0.034
12,RRIRNRPPRLPRPRPRPIPPPRP,-0.0301
13,RRIRVRPPRLPRPRPRPEKHPRP,-0.0527
14,RRIRGRPPRLPRPRPRPMNRPRP,0.022
15,RRIRERPPRLPRPRPRPYSIPRP,-0.0605
16,RRIRTRPPRLPRPRPRPVGRPRP,0.129
17,RRIRARPPRLPRPRPRPEFCPRP,0.83
18,RRIRARPPRLPRPRPRPDAAPRP,1.48
19,RRIRHRPPRLPRPRPRPDELPRP,-0.000777
20,RRIRQRPPRLPRPRPRPKYDPRP,-0.165
21,RRIRGRPPRLPRPRPRPPMSPRP,0.565
22,RRIRSRPPRLPRPRPRPWVMPRP,-0.0894
23,RRIRRRPPRLPRPRPRPPGWPRP,-0.0607
24,RRIRSRPPRLPRPRPRPEHNPRP,-0.0911
25,RRIRSRPPRLPRPRPRPCERPRP,-0.0685

row,Sequence,shrunken log2 fold change
1,RRIRDRPPRLPRPRPRPNGHPRP,-0.252
2,RRIRARPPRLPRPRPRPVFNPRP,-0.297
3,RRIRYRPPRLPRPRPRPTAMPRP,0.133
4,RRIRMRPPRLPRPRPRPEQFPRP,0.216
5,RRIRFRPPRLPRPRPRPDQWPRP,-0.125
6,RRIRVRPPRLPRPRPRPPQRPRP,0.374
7,RRIRCRPPRLPRPRPRPNEIPRP,-0.0995
8,RRIRARPPRLPRPRPRPRDYPRP,0.204
9,RRIRSRPPRLPRPRPRPPIGPRP,0.297
10,RRIRTRPPRLPRPRPRPHYIPRP,-0.105
11,RRIRTRPPRLPRPRPRPHAKPRP,0.0187
12,RRIRSRPPRLPRPRPRPRMAPRP,1.31
13,RRIRGRPPRLPRPRPRPSLYPRP,0.189
14,RRIRFRPPRLPRPRPRPIPTPRP,0.0793
15,RRIRTRPPRLPRPRPRPFDQPRP,0.176
16,RRIRARPPRLPRPRPRPRHQPRP,0.178
17,RRIRPRPPRLPRPRPRPQQQPRP,-0.17
18,RRIRVRPPRLPRPRPRPYVMPRP,-0.619
19,RRIRCRPPRLPRPRPRPQKEPRP,-0.104
20,RRIRARPPRLPRPRPRPNWEPRP,-0.0132
21,RRIRYRPPRLPRPRPRPTKHPRP,-0.896
22,RRIRGRPPRLPRPRPRPHSKPRP,0.205
23,RRIRARPPRLPRPRPRPRNPPRP,0.225
24,RRIRYRPPRLPRPRPRPFGHPRP,-0.15
25,RRIRARPPRLPRPRPRPGDWPRP,0.8
